Source: US20060073152A1 (Genentech, published 2006)
Like-named read-outs stand apart in the source and are kept apart here. Positions of bridges follow the written chain, without caps; N, C: chain ends. No end group written: not given here.

Assays:
[1] = molecular target: T1, rabbit serum albumin (rabbit, UniProt P49065 25-608); experiment: phage binding
T1 construct: also called Rabbit SA; BuSA

[2] = molecular target: T1, rabbit serum albumin; experiment: peptide competition for albumin
[3] = molecular target: T2, rat serum albumin (rat, UniProt P02770 25-608); experiment: peptide competition for albumin
T2 construct: also called Rat SA; RSA
T2 sequence (P02770 25-608 limits assumed): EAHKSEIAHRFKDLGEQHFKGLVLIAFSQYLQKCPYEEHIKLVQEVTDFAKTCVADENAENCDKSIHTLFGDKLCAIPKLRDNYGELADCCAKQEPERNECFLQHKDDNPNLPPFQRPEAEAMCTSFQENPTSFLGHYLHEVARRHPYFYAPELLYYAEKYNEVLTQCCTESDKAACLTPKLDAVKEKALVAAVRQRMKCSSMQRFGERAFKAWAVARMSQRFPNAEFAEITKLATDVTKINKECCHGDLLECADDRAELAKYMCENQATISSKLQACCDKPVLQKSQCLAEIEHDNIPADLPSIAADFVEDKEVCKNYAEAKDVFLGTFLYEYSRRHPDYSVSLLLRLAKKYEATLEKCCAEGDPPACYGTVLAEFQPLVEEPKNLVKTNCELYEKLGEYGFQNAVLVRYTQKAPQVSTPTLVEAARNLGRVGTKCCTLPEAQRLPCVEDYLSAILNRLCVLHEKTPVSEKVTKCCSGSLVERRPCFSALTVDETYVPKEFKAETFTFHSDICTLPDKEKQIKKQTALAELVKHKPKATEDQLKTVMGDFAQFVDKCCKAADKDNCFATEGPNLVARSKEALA

[4] = molecular target: T3, mouse serum albumin (mouse, UniProt P07724 25-608); experiment: peptide competition for albumin
T3 construct: also called Mouse SA; MuSA
T3 sequence (P07724 25-608 limits assumed): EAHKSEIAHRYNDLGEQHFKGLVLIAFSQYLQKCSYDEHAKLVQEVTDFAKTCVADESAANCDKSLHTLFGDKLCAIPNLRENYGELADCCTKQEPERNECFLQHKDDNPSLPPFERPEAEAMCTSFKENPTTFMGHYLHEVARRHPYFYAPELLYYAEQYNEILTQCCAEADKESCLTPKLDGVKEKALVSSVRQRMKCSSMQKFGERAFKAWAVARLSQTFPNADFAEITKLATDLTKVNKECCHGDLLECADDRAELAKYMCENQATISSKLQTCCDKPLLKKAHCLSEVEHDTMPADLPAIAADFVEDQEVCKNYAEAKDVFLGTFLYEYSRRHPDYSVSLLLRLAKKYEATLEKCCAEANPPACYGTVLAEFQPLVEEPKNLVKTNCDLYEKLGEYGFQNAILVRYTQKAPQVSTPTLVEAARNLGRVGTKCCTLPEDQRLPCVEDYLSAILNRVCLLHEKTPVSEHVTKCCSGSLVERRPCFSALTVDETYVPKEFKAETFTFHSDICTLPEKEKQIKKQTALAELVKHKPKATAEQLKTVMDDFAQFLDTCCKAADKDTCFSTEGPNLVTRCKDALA

[5] = molecular target: T1, rabbit serum albumin; experiment: phage binding; remark: listed apart in the source
[6] = molecular target: T2, rat serum albumin; experiment: phage binding
[7] = molecular target: T4, human serum albumin (human, UniProt P02768 25-609); experiment: phage binding
T4 construct: also called Human SA; HuSA

[8] = molecular target: T2, rat serum albumin; experiment: phage binding; remark: listed apart in the source
[9] = molecular target: T4, human serum albumin; experiment: phage binding; remark: listed apart in the source
[10] = molecular target: T1, rabbit serum albumin; experiment: SA08 peptide competition
[11] = molecular target: T3, mouse serum albumin; experiment: SA08 peptide competition
[12] = molecular target: T1, rabbit serum albumin; experiment: SPR (BIAcore), albumin on the chip
[13] = molecular target: T2, rat serum albumin; experiment: SPR (BIAcore), albumin on the chip
[14] = molecular target: T4, human serum albumin; experiment: SPR (BIAcore), albumin on the chip
[15] = molecular target: T1, rabbit serum albumin; experiment: peptide competition; head prints RSA, read as rabbit

T1 sequence (P49065 25-608 limits assumed): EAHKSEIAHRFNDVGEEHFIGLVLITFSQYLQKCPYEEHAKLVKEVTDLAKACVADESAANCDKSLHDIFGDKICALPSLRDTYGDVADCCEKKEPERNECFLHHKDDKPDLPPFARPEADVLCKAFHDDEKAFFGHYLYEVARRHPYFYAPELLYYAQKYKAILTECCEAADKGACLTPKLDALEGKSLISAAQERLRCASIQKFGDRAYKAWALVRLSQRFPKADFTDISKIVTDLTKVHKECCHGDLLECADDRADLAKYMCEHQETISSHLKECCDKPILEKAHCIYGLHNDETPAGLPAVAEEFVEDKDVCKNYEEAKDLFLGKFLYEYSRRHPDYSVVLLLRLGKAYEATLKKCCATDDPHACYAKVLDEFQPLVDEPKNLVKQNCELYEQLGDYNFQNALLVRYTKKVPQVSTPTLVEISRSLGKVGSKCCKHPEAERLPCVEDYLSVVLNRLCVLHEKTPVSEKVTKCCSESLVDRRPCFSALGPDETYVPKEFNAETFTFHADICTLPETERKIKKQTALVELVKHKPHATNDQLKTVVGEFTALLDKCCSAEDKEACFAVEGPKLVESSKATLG

Binder: KSCSELHWLLVEECLF (not fully specified (bridges); cysteine pairing not given here, on phage) [BD]
- binding result [1]: binds

Binder: Ac-MEDICLPRWGCLWEDD-NH2 (not fully specified (bridges); cysteine pairing not given here, free peptide) [SA11]
- IC50 [2]: 1210 nM
- IC50 [3]: 232 nM
- IC50 [4]: 17 nM

Binder: LWAMEDICLPKWGCLWEDDF (on phage) [RB-B4]
- binding result [5]: binds
- binding result [6]: binds
- binding result [7]: binds

Binder: HSQMEDICLPRWGCLWGDEL (not fully specified (bridges); cysteine pairing not given here, on phage) [RB-B8]
- binding result [5]: binds
- binding result [6]: binds
- binding result [7]: binds

Binder: DTCVDLVRLGLECWG (on phage; also called Library RD) [RD]
- binding result [8]: binds

B1: RA (peptide)
peptide: RNEDPCVVLLEMGLECWEGV
modifications: not fully specified (bridges); cysteine pairing not given here; also: phage-displayed
notes: on phage
- binding result [8]: binds

Binder: MEDICLPRWGCLWED-NH2 (not fully specified (bridges); cysteine pairing not given here, free peptide) [SA05]
- IC50 [2]: 804 nM
- IC50 [3]: 161 nM
- IC50 [4]: 6 nM

Binder: QRLMEDICLPRWGCLWEDDF-NH2 (disulfide 8-14 (inferred)) [SA06]
- IC50 [2]: 128 nM
- IC50 [3]: 68 nM
- IC50 [4]: 8 nM

Binder: EVRSFCTDWPAEKSCKPLRG (on phage; also called Library HA) [HA]
- binding result [9]: binds

Binder: EMCYFPGICWM (on phage; also called Library HC) [HC]
- binding result [8]: binds
- binding result [9]: binds

Binder: DLCLRDWGCLW (on phage; also called Library RC) [RC]
- binding result [8]: binds

Binder: Ac-MEDICLPRWGCLWED-NH2 (not fully specified (bridges); cysteine pairing not given here, free peptide) [SA12]
- IC50 [2]: 1760 nM
- IC50 [3]: 205 nM
- IC50 [4]: 13 nM

B2: SA15 (peptide)
peptide: GEWWEDICLPRWGCLWEEED-NH2
modifications: not fully specified (bridges); printed as GEWWEDICLPRWGCLWEEED-NH2; cysteine pairing not given here
notes: free peptide
- IC50 [10]: 13 nM
- IC50 [11]: 5 nM
- Kd [12]: 65 nM
- Kd [13]: 150 nM
- Kd [14]: 878 nM

Binder: RAPESFVCYWETICFERSEQ (on phage; also called Library HB) [HB]
- binding result [9]: binds

Binder: QWHMEDICLPQWGCLWGDVL (on phage) [RB-B5]
- binding result [5]: binds
- binding result [6]: binds
- binding result [7]: binds

Binder: NRQMEDICLPQWGCLWGDDF (on phage) [RB-H6]
- binding result [5]: binds
- binding result [6]: binds
- binding result [7]: binds

Binder: DICLPRWGCLW-NH2 (not fully specified (bridges); cysteine pairing not given here, free peptide) [SA04]
- IC50 [15]: 8540 nM
- IC50 [2]: 8540 nM
- IC50 [3]: 787 nM
- IC50 [4]: 40 nM

Binder: CGCVDVSDWDCWSECLWSHGA (on phage) [RE]
- binding result [8]: binds

B3: RB-B11 (peptide)
peptide: QWQVMDICLPRWGCLWADEY
modifications: not fully specified (bridges); cysteine pairing not given here; also: phage-displayed
notes: on phage
- binding result [5]: binds
- binding result [6]: binds
- binding result [7]: binds

Binder: Ac-RLMEDICLPRWGCLWEDD-NH2 (cysteine pairing not given here, free peptide) [SA10]
- IC50 [2]: 86 nM
- IC50 [3]: 77 nM

Binder: Ac-RLIEDICLPRWGCLWEDD-NH2 (cysteine pairing not given here, free peptide) [SA21]
- IC50 [15]: 270 nM
- IC50 [10]: 270 nM
- IC50 [11]: 7 nM
- Kd [12]: 320 nM

Binder: QRHPEDICLPRWGCLWGDDD (on phage) [RB-H1]
- binding result [5]: binds
- binding result [6]: binds
- binding result [7]: binds

Binder: LRLMDNICLPRWGCLWDDGF (not fully specified (bridges); cysteine pairing not given here, on phage) [RB-B7]
- binding result [5]: binds
- binding result [6]: binds
- binding result [7]: binds

Binder: QRQMVDFCLPQWGCLWGDGF (on phage; also called Library RB) [RB]
- binding result [1]: binds
- binding result [8]: binds
- binding result [9]: binds

Binder: GENWCDSTLMAYDLCGQVNM (on phage; also called Library BA) [BA]
- binding result [1]: binds

Binder: MDELAFYCGIWECLMHQEQK (on phage) [BB]
- binding result [1]: binds

Binder: DLCDVDFCWF (on phage) [BC]
- binding result [1]: binds

Binder: Ac-EDICLPRWGCLWEDD-NH2 (not fully specified (bridges); cysteine pairing not given here, free peptide) [SA09]
- IC50 [2]: 1690 nM
- IC50 [3]: 258 nM
- IC50 [4]: 6 nM

Binder: QGLIGDICLPRWGCLWGDSV-NH2 (not fully specified (bridges); cysteine pairing not given here, free peptide) [SA07]
- IC50 [2]: 30 nM
- IC50 [3]: 35 nM
- IC50 [4]: 6 nM

Binder: Ac-QGLIGDICLPRWGCLWGDSVK-NH2 (cysteine pairing not given here, free peptide) [SA08]
- IC50 [2]: 63 nM
- IC50 [3]: 68 nM
- IC50 [4]: 10 nM
- IC50 [11]: 12 nM
- Kd [12]: 108 nM
- Kd [13]: 158 nM
- Kd [14]: 858 nM

B4: RB-B6 (peptide)
peptide: QWQMENVCLPKWGCLWEELD
modifications: not fully specified (bridges); cysteine pairing not given here; also: phage-displayed
notes: on phage
- binding result [5]: binds
- binding result [6]: binds
- binding result [7]: binds
